# ± gives the standard error. This sample holds only a part of the variants without activity.
# B1: glmS ribozyme (parent)
# chain: AUAAAAGCGCCAGAACUACAGAAAUGUAGUUGACGAGGAGGAGGUUUAUCGAAUUUUCGGCGGAUGCCUCCAAA
# Experiments:
# Details in all cases: with glucosamine-6-phosphate
# [1] = variants of: B1; test: self-cleavage kobs at 40 uM GlcN6P; higher = faster cleavage; RNA array
# Summary of the method: (§1)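 Tiles of sequenced MiSeq chips were imaged over ~14 h at 37 °C. On them, barcoded ribozyme variants had been transcribed in situ by E. coli RNA polymerase and were tracked via a hybridised Cy3 probe while glucosamine-6-phosphate (40 μM to 10 mM) in HEPES/KCl/Mg(OAc)2 buffer flowed in. Per-tile medians, normalised to baseline and to non-cleaving reference variants, were fit to one- or two-exponential decays for kobs, and weighted Michaelis–Menten fits gave kcat and KM.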
# [2] = variants of: B1; test: self-cleavage kobs at 10000 uM GlcN6P; higher = faster cleavage; RNA array
# Summary of the method: as §1
# [3] = variants of: B1; test: self-cleavage kobs at 160 uM GlcN6P; higher = faster cleavage; RNA array
# Summary of the method: as §1
# [4] = variants of: B1; test: self-cleavage kobs at 640 uM GlcN6P; higher = faster cleavage; RNA array
# Summary of the method: as §1
# [5] = variants of: B1; test: self-cleavage kobs at 2500 uM GlcN6P; higher = faster cleavage; RNA array
# Summary of the method: as §1
Variant,self-cleavage kobs at 40 uM GlcN6P [1] [s⁻¹],self-cleavage kobs at 10000 uM GlcN6P [2] [s⁻¹],self-cleavage kobs at 160 uM GlcN6P [3] [s⁻¹],self-cleavage kobs at 640 uM GlcN6P [4] [s⁻¹],self-cleavage kobs at 2500 uM GlcN6P [5] [s⁻¹]
AUAAAAGGGCCAGAACUACAGAAAUGUAGUUGACGAGGAGGAGGUUUAUCGAAUUUUCGUCGGUUGCCUCCAAA [C8G G60U A64U],< 1e-05,< 1e-05,–,–,–
AUAAAAGUGCCCGAACUACAGAAAUGUAGUUGACGAGGAAGAGGGUUAUCGAAUUUUCGACGGAUUCCUCCAAA [C8U A12C G40A U45G G60A G66U],< 1e-05,–,–,–,–
AUAAAAGGGCCAGAACUACAGAAAUGUAGUAGACGGGGAGGAGGUUUAUCGAAUUUUCGGCGGAUGCCUCCAAA [C8G U31A A36G],< 1e-05,–,–,–,–
AUAAAAGGGCCAGAACUACAGAAAUGUAGUUGACGAGCAGGAGGUUUAUAGAAUUUUCGGCGGAUUCCUCCAAA [C8G G38C C50A G66U],< 1e-05,–,< 1e-05,< 1e-05,< 1e-05
AUAAAAGUGCCAGAUCUACAGAAAUGUAGGUGACCAGGAGUAGGUUUAUCGAAUUUUCGGCGGAUGCCUCCAAA [C8U A15U U30G G35C G41U],< 1e-05,–,–,< 1e-05,< 1e-05
AUAAAAGGGCCAGAACUACAGAAAUGUAGUUGACGAGGAGGAGGUUUAUCGAAGUUUCGGCGGAUGCCUCCAAA [C8G U54G],< 1e-05,–,–,–,–
AUAAAAGUGCCCGAACUACAGAAAUGUAGUUGACGAGGAGGAGGUUUAUCGAAUUUUCGGGGGAUGCCUCCAAA [C8U A12C C61G],< 1e-05,< 1e-05,–,–,< 1e-05
AUAAAAGGGCCAGAACUACAGAAAUGUAGUUUACGAGCAGGAGGUUUAUCUAAUUUUCGGCGGAUGCCUCCAAA [C8G G32U G38C G51U],< 1e-05,–,–,–,–
AUAAAAGGGCCAGAACUACAGAAAUGUAGUUGACGAGGAGGAGGUUUAUCGAAUUUUCGGCGCAUGCCUCCAAA [C8G G63C],< 1e-05,–,< 1e-05,< 1e-05,< 1e-05
AUAAAAGGGCCAGAACUACAGAAAUGUAGUUGACGAGGAGGAGGUUUAUCGAAUCUUCGGUGGAUGCCUCCAAA [C8G U55C C61U],< 1e-05,–,–,< 1e-05,< 1e-05
AUAAAAGUGCCCGAGCUACAGAAAUGUAGUUGACGAGGAGGAGGUUUAUCGAAUUUUCGGCGGAUGUCUCCAAA [C8U A12C A15G C67U],< 1e-05,< 1e-05,–,–,–
AUAAAAGGGCCAGAACUACAGAAAUGUAGUUGACGAGGAGGAGGUUUAUCGAAUUUGCGGCGGAUGCCUGCAAA [C8G U57G C70G],0.0017 ± 0.00055,–,–,–,–
AUAAAAGGGCCAGAACUACAGAAAUGUAGUUGACGAGGAGGAGGUUACUCGAAUUUUCGGCGGAUGCCUGCAAA [C8G U47A A48C C70G],< 1e-05,< 1e-05,< 1e-05,< 1e-05,–
AUAAAAGGGCCAGAACUACAGAAAUGUAGAUGACGAGGAGGAGGUUUAUCGAAUUUUCGGCGGAUGCCUCCAAA [C8G U30A],< 1e-05,< 1e-05,< 1e-05,< 1e-05,–
AUAAAAGUGCCAGAGCUACAGAAAUGUAGUUGACGAGUAGGAGGUUUAUCGAAUUUUCGGGGGAUGCGUCCAAA [C8U A15G G38U C61G C68G],0.00048 ± 0.00015,0.000181 ± 4.8e-05,–,–,–
AUAAAAGGGCCAGAACUACAGAAAUGUAGUUGACGAGGAGGAGGGUGAUCGAAUUUUUGGCGGAUUCCUCUAAA [C8G U45G U47G C58U G66U C71U],< 1e-05,–,–,–,–
AUAAAAGGGCCAGAACUACAGAAAUGUAGUUGACGAGGAGGAGGCUUAUCGAAUUUUCGGCAGAUGCCUCCAAA [C8G U45C G62A],< 1e-05,< 1e-05,–,–,–
AUAAAAGGGCCAGAACUACAGAAAUGUAGUUGACGAGGAGGAGGCUUAUCGAAUUUUCGGCGGAUGCCUCCAAA [C8G U45C],< 1e-05,< 1e-05,< 1e-05,< 1e-05,< 1e-05
AUAAAAGGGCCAGAACUACAGAAAUGUAGUUGACGAGGAGGAUGUUUAUCGAAUUUUCGGCGGAAGCCUCGAAA [C8G G43U U65A C71G],< 1e-05,< 1e-05,–,< 1e-05,< 1e-05
AUAAAAGUGCCAGAACUACAGAAAUGUAGUUGUCGAGGAGGAGGUUUAUCGAAUUUUCGGCGGAUCCCUCCAAA [C8U A33U G66C],< 1e-05,–,–,–,–
AUAAAAGGGCCAGAACUACAGAAAUGUAUUUGCCGAGGAGGAGGUUUAUCGAAUUUUCGGCGGAUGCAUCCAAA [C8G G29U A33C C68A],< 1e-05,< 1e-05,–,< 1e-05,–
AUAAAAGGGCCAGAACUACAGAAAUGUAGUUGACGAGUAGGAGGUUUAUCGAAUUUUCGUCGGAUGCCUCCAAA [C8G G38U G60U],< 1e-05,–,–,–,–
AUAAAAGGGCCAGAACUACAGAAAUGUAGUAGACGAGGAGGAGGUUUAUCGAAUUAUCGGCGGAUGCCUACAAA [C8G U31A U56A C70A],< 1e-05,< 1e-05,–,–,–
AUAAAAGGGCCAGAACUACAGAAAUGUAGUUGACGAGGAGGAGGUUUAUCGAAUUUUCGGCGGAUUCCUCCAAA [C8G G66U],< 1e-05,–,< 1e-05,< 1e-05,< 1e-05
AUAAAAGUGCCAGAGCUACAGAAAUGUAGUUGAUUUGGAGGAGGUUUAUCGAAUUUUCGGCGGAUGCAUCCAAA [C8U A15G C34U G35U A36U C68A],< 1e-05,–,< 1e-05,< 1e-05,–
AUAAAAGUGCCAGAACUACAGAAAUGUAGUUGCCGAGGAGGAGGUUUAUCGAAUUUUCGGCGGAUGCCUCAAAA [C8U A33C C71A],< 1e-05,–,–,–,–
AUAAAAGUGCCAGGACUACAGAAAUGUAGUUGACGAGGAGGCGGUUUAUCGAAUUUUCGGCGGAUGCCUCCAAA [C8U A14G A42C],< 1e-05,–,< 1e-05,–,< 1e-05
AUAAAAGGGCCAGAACUACAGAAAUGUAGUUGACGAGGAGGAGGUUUAUCUAAUUUUCGGCGGAUGCCUCCAAA [C8G G51U],< 1e-05,< 1e-05,–,< 1e-05,–
AUAAAAGGGCCAGAACUACAGAAAUGUAGUUGACGAGGAGGACGUUUAUCGAAUUUUCGGCGGAUGCCUCCAAA [C8G G43C],< 1e-05,< 1e-05,< 1e-05,< 1e-05,< 1e-05

# From the supplement of paper PMC7125110
